Test results published in the supplement of paper PMC11780869.

Test system: Bacillus subtilis
Experiment: cleaved RNA product abundance (RNA/gDNA barcode ratio) relative to median wild-type variant (ratio to wild type); higher = more accumulation of the downstream cleavage product
Procedure, shortened: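 Cleaved product abundance for each construct is its RNA-to-gDNA barcode ratio, scaled to the median construct carrying the unmutated site. Cleaved RNA was isolated on a gel, reverse transcribed and barcode-sequenced, with genomic DNA barcodes sequenced alongside and UMIs collapsed. The reporters were truncated aprE or tetM mRNAs with barcoded, mutagenized RNase Y cleavage-site windows integrated into the B. subtilis chromosome, and cultures grew in LB at 37°C from OD600 0.0003 to 0.3.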

[1] = experiment (reporter, strain, medium): exp 8a: truncated aprE reporter, strain BJT201 with 2% xylose (RNase J1 expressed), cleavage site: glnRA (positions -5 to +31 mutated)
[2] = experiment (reporter, strain, medium): exp 4a: truncated aprE reporter, strain BJT201 with 2% xylose (RNase J1 expressed), cleavage site: cggR-gapA (positions -7 to +36 mutated)
[3] = experiment (reporter, strain, medium): exp 2b: truncated aprE reporter, strain BJT200, cleavage site: cggR-gapA (positions -7 to +36 mutated)

Row | Sequence | cleaved RNA product abundance [1] | cleaved RNA product abundance [2] | cleaved RNA product abundance [3]
1 | CGACATGTCCCGCTTCTTTCATTAATCCGTTAGCAATTGTTTTGCTATATACATTTAACTTTTAAGAGGAGGAAT | 1.06 | – | –
2 | CGACATGTCCCGCTTCTTTCATTAATCCGTAAGCAACTGTTTTACTATATACATTTACCTTTTAAGAGGAGGAAT | 0.583 | – | –
3 | ACAGACGAAGGAGCCGCAAAGAAGTTACTAAGGGATGAATAATCCCTCAATATATATATCTCTCACTTATTTAAA | – | 0.346 | –
4 | CGACATGTCCCGCTTCTTTCATTAATCCGTTAACAATTGTTTTGCTACATACATTTACCTTTTAAGAGGAGGAAT | 0.135 | – | –
5 | ACAGACGAAGGAGCCGCAAAGATGTTATTAAGGGATGAATAATCCCTCAATATAAATACCTCTCACTTATTTAAA | – | – | 0.71
6 | ACAGACGAAGGAGCCGCAAAGAAGTTATTATGGGATAAATAATCCCTCAATATAAATATCTCTCACTTATTTAAA | – | 0.362 | 0.31
7 | ACAGACGAAGGAGCCGCAAAGAAGTTATTAAGGGATGAATAATCCTTCAATATAAACATCTCTCACTTATTTAAA | – | 0.33 | 0.415
8 | ACAGACGAAGGAGCCGCAAAGAAGTTATTACGGGATGAATAATGCCTCAATATAAATATCTCTCACTTATTTAAA | – | 0.128 | –
9 | ACAGACGAAGGAGCCGCAAAGAAGTCATTAAGGGATGAATAATCCCCCAATATAAATATCTCTCACTTATTTAAA | – | 0.113 | –
10 | ACAGACGAAGGAGCCGCAAAGAAGTTATTTAGGGATGAATAATCCCTAAATATAAATATCTCTCACTTATTTAAA | – | – | 0.353
11 | CGACATGTCCCGCTTCTTTCATTAATCCTTTAGCAACTGTTTTGTTATATACATTTACCTTTTAAGAGGAGGAAT | 0.553 | – | –
12 | ACAGACGAAGGAGCCGCAAAAAAGTTTTTAAGGGATGAATAATCCCTCAATATAAATATCTCTCACTTATTTAAA | – | 0.435 | 0.281
13 | ACAGACGAAGGAGCCGCAAAGAAGTTATTAACGGATGAATAATCCCTCTATATAAATATCTCTCACTTATTTAAA | – | 0.133 | –
14 | ACAGACGAAGGAGCCGCAAAGAAGTTATTAAGGGCTGTATAATCCCTCAATATAAATATCTCTCACTTATTTAAA | – | 0.54 | –
15 | CGACATGTCCCGCTTCTTTCATTATTCCGTTTTCAACTGTTTTGCTATATACATTTACCTTTTAAGAGGAGGAAT | 0.361 | – | –
16 | ACAGACGAAGGAGCCGCTAAGAAGTTATTAAGGGATGAATAATCCTTCAATATAAATATCTCTCACTTATTTAAA | – | 0.597 | 0.434
17 | ACAGACGAAGGAGCCGCAAAGAATTTATTAAGGGATGAATAATTCCTCAATATAAATATCTCTCACTTATTTAAA | – | 0.394 | –
18 | CGACATGTCCCGCTTCTTTCATTAATCCGTTACCAACTGTTTAGCTATATACATTTACCTTTTAAGAGGAGGAAT | 0.208 | – | –
19 | ACAGACGAAGGAGCCGCAAAGAAGTTATTAAGGGATGAGTAAACCCTCAATATAAATATCTCTCACTTATTTAAA | – | 0.35 | –
20 | ACAGACGAAGGAGCCGCAAAGAAGTTATTAAGGGATGAATAATCCCTAAATATAAATATCTCTCACTATTTAAAG | – | 0.705 | –
21 | ACAGACGAAGGAGCCGCAAAGAAGTTATTAAGGCATGAATAATCCCTCAATACAAATATCTCTCACTTATTTAAA | – | 0.058 | –
22 | CGACATGTCCCGCTTCTTTCATTAATCCGTAAGCTACTGTTTTGCTATATACATTTACCTTTTAAGAGGAGGAAT | 0.123 | – | –
23 | ACAGACGAAGGAGCCGCATAGAAGTTATTAAGGGTTGAATAATCCCTCAATATAAATATCTCTCACTTATTTAAA | – | 0.41 | 0.498
24 | ACAGACGAAGGAGCCGCAAAGAAGTTATTAAGGGATGAATAATCCCTTAATATAAACATCTCTCACTTATTTAAA | – | 0.216 | 0.304

Row | Sequence | cleaved RNA product abundance [1] | cleaved RNA product abundance [2] | cleaved RNA product abundance [3]
25 | ACAGACGAAGGAGCCGCAAAGAAGTTATTAAGGTATGAATTATCCCTCAATATAAATATCTCTCACTTATTTAAA | – | – | 0.15
26 | CGACATGTCCCGCTTCTTTCATTAATCCGTTAGCAACTGTTTTGCTATATACAGTTACGTTTTAAGAGGAGGAAT | 0.192 | – | –
27 | ACAGACGAAGGAGCCGCAAAGAAGTTATAAAGGGATGAATAATCCCTCCATATAAATATCTCTCACTTATTTAAA | – | 0.266 | –
28 | ACAGACGAAGGAGCCGCAAAGAAGTTATTAAAGGATGAATAATCCCTGAATATAAATATCTCTCACTTATTTAAA | – | 0.171 | 0.133
29 | ACAGACGAAGGAGCCGCAAAGAAGTTATTAAGGGATTAACAATCCCTCAATATAAATATCTCTCACTTATTTAAA | – | 0.961 | 1.08
30 | CGACATGTCCCGCTTCTTTCATTAATCCGTTAGCAACTGTTTTGCTATATACACTTATCTTTTAAGAGGAGGAAT | 0.672 | – | –
31 | ACAGACGAAGGAGCCGCAAAGAAGTTATTAAGGGATGAATAATCCCTCAATATAGATATCTCTCACTTATTTAAA | – | 0.683 | 0.711
32 | CGACATGTCCCGCTTCTTTCATTAATCCGTTAGTAATTGTTTTGCTATATACATTTACCTTTTAAGAGGAGGAAT | 0.362 | – | –
33 | CGACATGTCCCGCTTCTTTCATTAATCCGTTAGCAACTGTTTTACTATATATATTTACCTTTTAAGAGGAGGAAT | 0.708 | – | –
34 | ACAGACGAAGGAGCCGCAAAGAAGTTATGAAGGGATTAATAATCCCTCAATATAAATATCTCTCACTTATTTAAA | – | 0.476 | 0.402
35 | ACAGACGAAGGAGCCGCAAAGAAGTTATTATGGGATGAATAATCCCTCTATATAAATATCTCTCACTTATTTAAA | – | 0.223 | –
36 | CGACATGTCCCGCTTCTTTCATTAACCCGTTAGCAACTGTTTTGCTATATAAATTTACCTTTTAAGAGGAGGAAT | 0.627 | – | –
37 | CGACATGTCCCGCTTCTTTCATAATCCGTTAGCAACTGTTTTGCTATATACATTTACCTTTTAAGAGGAGGAATT | 1.13 | – | –
38 | ACAGACGAAGGAGCCGCAAAGAAGTCATTAAGCGATGAATAATCCCTCAATATAAATATCTCTCACTTATTTAAA | – | 0.0665 | –
39 | CGACATGTCCCGCTTCTTTCATTAATCCGTTAGCAACAGTTTTGATATATACATTTACCTTTTAAGAGGAGGAAT | 0.429 | – | –
40 | ACAGACGAAGGAGCCGCAAATAAGTTATTAAGGGATTAATAATCCCTCAATATAAATATCTCTCACTTATTTAAA | – | 0.881 | 0.863
41 | ACAGACGAAGGAGCCGCAAATAAGTTATTAAGGGATGAATAATCCCTCAGTATAAATATCTCTCACTTATTTAAA | – | 0.303 | –
42 | CGACATGTCCCGCTTCTTTCATTAATCCGTTAGCAACTGTTTTGCGATATACATTTACCTTTTAAGAGGAGGAAT | 0.406 | – | –
43 | ACAGACGAAGGAGCCGCAAAGAAGTTATTAAGGAATGAATAATCCCTCAATATAGATATCTCTCACTTATTTAAA | – | 0.101 | –
44 | ACAGACGAAGGAGCCGCAAATAAGTTATTAAGGGGTGAATAATCCCTCAATATAAATATCTCTCACTTATTTAAA | – | 0.273 | –
45 | CGACATGTCCCGCTTCTTTCATTAATTTGTTAGCAACTGTTTTGCTATATACATTTACCTTTTAAGAGGAGGAAT | 1.37 | – | –
46 | CGACATGTCCCGCTTCTTTCATTATTCCGTTAGCAACTGTTTTGCTATAAACAGTTACCTTTTAAGAGGAGGAAT | 0.0919 | – | –
47 | ACAGACGAAGGAGCCGCAAAGTAGTTATTAAGGGATGAATAATCCCTAAATATAAATATCTCTCACTTATTTAAA | – | 0.55 | –
